This note sets out measurements from US20100190699A1 (INDIANA UNIVERSITY RESEARCH AND TECHNOLOGY, published 2010).

What all share (assay): cell-based or functional assay
Experiment [1] addresses T1, glucagon receptor (UniProt P47871 26-477, limits assumed).
Experiment [2] deals with T1, glucagon receptor. This is another data set of the same source.
Experiment [3] addresses GLP-1 receptor (UniProt P43220 24-463, limits assumed).

T1 sequence (P47871 26-477 limits assumed): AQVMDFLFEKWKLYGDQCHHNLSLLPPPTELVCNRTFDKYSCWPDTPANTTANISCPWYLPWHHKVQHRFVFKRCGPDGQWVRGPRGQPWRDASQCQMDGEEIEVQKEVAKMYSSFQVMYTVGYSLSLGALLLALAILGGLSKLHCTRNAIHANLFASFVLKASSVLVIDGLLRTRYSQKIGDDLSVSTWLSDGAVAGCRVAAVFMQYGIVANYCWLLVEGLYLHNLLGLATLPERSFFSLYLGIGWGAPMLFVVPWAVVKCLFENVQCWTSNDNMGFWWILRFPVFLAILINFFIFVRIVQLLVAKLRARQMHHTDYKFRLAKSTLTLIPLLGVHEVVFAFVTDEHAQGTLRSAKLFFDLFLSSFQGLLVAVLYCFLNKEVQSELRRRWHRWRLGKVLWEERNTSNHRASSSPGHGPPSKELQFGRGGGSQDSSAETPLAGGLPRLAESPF

As for HSQGTFTSDYSKYLESRRAQDFVQWLMDT [glucagon analog D28, E15], in experiment [1], the “Observed EC50 (cAMP induction), Test 3” value was 0.15 nM.

As to HSQGTFTSDYSKYLDSRRAQDFVQWLMDTE [glucagon analog D28, E30], in experiment [1], the “Observed EC50 (cAMP induction), Test 3” value worked out at 0.05 nM.

In the case of HSQGTFTSDYSKYLDSRRAQDFVQWLMNTKK [glucagon analog K30, K31], the “Observed EC50 (cAMP induction), Test 2” value in experiment [1] stood at 0.12 nM.

Regarding HSQGTFTSDYSRYLDSRRAQDFVQWLMNK [Glucagon R12 K29], the “cAMP Induction, EC50 (luciferase reporter)” value in experiment [2] is 0.81 nM; in experiment [3], 0.41 nM.

As for HSQGTFTSDYSKYLDSRRAQDFVQWLMNKK [glucagon analog K29, K30], in experiment [1], the “Observed EC50 (cAMP induction), Test 1” value is 0.89 nM.

On to HSQGTFTSDYSKYLDSRRAQDFVQWLMNTE [glucagon analog E30], for which the “Observed EC50 (cAMP induction), Test 2” value in experiment [1] was 0.04 nM.

Take HSQGTFTSDYSKYLDSRRAQDFVQWLMDE [glucagon analog D28, E29]: in experiment [1], the “Observed EC50 (cAMP induction), Test 3” value was 0.03 nM.
